Assay results reported in the supplement of paper PMC7125110.
± gives the standard error. Fewer inactive variants are shown than the library holds.

B1: glmS ribozyme (parent)
chain: AUAAAAGCGCCAGAACUACAGAAAUGUAGUUGACGAGGAGGAGGUUUAUCGAAUUUUCGGCGGAUGCCUCCAAA

Key:
Conditions in all cases: with glucosamine-6-phosphate
[1] = variants of: B1; assay: self-cleavage kobs at 640 uM GlcN6P; higher = faster cleavage; RNA array
In short: (§1)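 E. coli RNA polymerase transcribed barcoded ribozyme variants in situ on sequenced MiSeq chips, which were tracked via a hybridised Cy3 probe at 37 °C. Tiles were imaged over ~14 h after glucosamine-6-phosphate (40 μM to 10 mM) in HEPES/KCl/Mg(OAc)2 buffer was flowed in. Normalised per-tile medians were fit to one- or two-exponential decays for kobs, and kcat and KM came from weighted Michaelis–Menten fits.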

[2] = variants of: B1; assay: self-cleavage kobs at 2500 uM GlcN6P; higher = faster cleavage; RNA array
In short: as §1

[3] = variants of: B1; assay: self-cleavage kobs at 10000 uM GlcN6P; higher = faster cleavage; RNA array
In short: as §1

Variant	self-cleavage kobs at 640 uM GlcN6P [1]	self-cleavage kobs at 2500 uM GlcN6P [2]	self-cleavage kobs at 10000 uM GlcN6P [3]
G7U G13U A15U C50A G51A G60U C67A C71A	0.000375 ± 0.00012 s⁻¹	–	–
C10A C16A G51U A64C	< 1e-05 s⁻¹	–	–
C8G A33U U46A U69G	< 1e-05 s⁻¹	< 1e-05 s⁻¹	–
C11A U54A U55G G63U U65G	< 1e-05 s⁻¹	–	–
G7U A39C U57G G63C C68U	< 1e-05 s⁻¹	< 1e-05 s⁻¹	–
G9U C16A G59U G60U	< 1e-05 s⁻¹	< 1e-05 s⁻¹	–
G13U A14U A48U	< 1e-05 s⁻¹	< 1e-05 s⁻¹	–
C10U G29A C61A G62A C70U	7.67e-05 ± 3.8e-05 s⁻¹	–	–
G7C U31C G40C	< 1e-05 s⁻¹	< 1e-05 s⁻¹	–
C10G A14G A36C G62U	< 1e-05 s⁻¹	–	–
C8G A15G G40U	< 1e-05 s⁻¹	–	–
A12C G40A U65A	9.15e-05 ± 1.3e-05 s⁻¹	0.000293 ± 5.4e-05 s⁻¹	–
G7U U45A A53G U56G	< 1e-05 s⁻¹	–	–
C10A C16U C67G	0.000345 ± 0.00015 s⁻¹	–	–
C10U G35U	< 1e-05 s⁻¹	< 1e-05 s⁻¹	< 1e-05 s⁻¹
G13A A53G G66A	6.41e-05 ± 2.2e-05 s⁻¹	–	–
C8U G35A G60C U65G	< 1e-05 s⁻¹	–	–
C8A G9C G29C G35U	< 1e-05 s⁻¹	< 1e-05 s⁻¹	–
C11G A12U G38C A42U	< 1e-05 s⁻¹	< 1e-05 s⁻¹	–
A14C G32C C71U	7.58e-05 ± 2.5e-05 s⁻¹	0.000118 ± 2.6e-05 s⁻¹	0.000332 ± 7.4e-05 s⁻¹
G7U U54A	< 1e-05 s⁻¹	< 1e-05 s⁻¹	< 1e-05 s⁻¹
A12C U30G U45C C50A A52U	< 1e-05 s⁻¹	–	–

Variant	self-cleavage kobs at 640 uM GlcN6P [1]	self-cleavage kobs at 2500 uM GlcN6P [2]	self-cleavage kobs at 10000 uM GlcN6P [3]
C11G G37C A39G	< 1e-05 s⁻¹	< 1e-05 s⁻¹	–
A6U G41A G44C C67G C70G	< 1e-05 s⁻¹	< 1e-05 s⁻¹	–
C8G U57G C70U	< 1e-05 s⁻¹	< 1e-05 s⁻¹	–
G13C G43U C58G	< 1e-05 s⁻¹	< 1e-05 s⁻¹	< 1e-05 s⁻¹
C8A A33U U55G	< 1e-05 s⁻¹	–	< 1e-05 s⁻¹
C11G G13C A15G G43U G63C	< 1e-05 s⁻¹	< 1e-05 s⁻¹	–
C8U C10G C67G	0.000675 ± 0.00032 s⁻¹	–	–
G13U G43C A64G	< 1e-05 s⁻¹	–	–
C8U G13U U47C G51C	< 1e-05 s⁻¹	–	–
C11A C16A C50G	0.000146 ± 4.5e-05 s⁻¹	8e-05 ± 2.7e-05 s⁻¹	–
C8A U54C A64C	< 1e-05 s⁻¹	< 1e-05 s⁻¹	–
C11G U47G C50A C70G	0.000245 ± 6.2e-05 s⁻¹	0.000139 ± 4e-05 s⁻¹	7.52e-05 ± 1.9e-05 s⁻¹
G9U G40A C61G	< 1e-05 s⁻¹	–	–
C10U U47C U55G	< 1e-05 s⁻¹	–	–
G13U U56C G62U	< 1e-05 s⁻¹	< 1e-05 s⁻¹	< 1e-05 s⁻¹
C10U A12G G32A A42U	< 1e-05 s⁻¹	< 1e-05 s⁻¹	–
C10U C50U A53C	< 1e-05 s⁻¹	–	–
C10G A12U U46A	< 1e-05 s⁻¹	–	–
G9C U31C C67U	< 1e-05 s⁻¹	< 1e-05 s⁻¹	–
G13U G35U G37U	< 1e-05 s⁻¹	–	–
A6U G29U A52C	< 1e-05 s⁻¹	–	–
A6G G9A A33C A39U G41U A53U	< 1e-05 s⁻¹	–	–

Variant	self-cleavage kobs at 640 uM GlcN6P [1]	self-cleavage kobs at 2500 uM GlcN6P [2]	self-cleavage kobs at 10000 uM GlcN6P [3]
A12C A33C G40U G63U C68U	< 1e-05 s⁻¹	< 1e-05 s⁻¹	–
A12U A33C G41U G62C	< 1e-05 s⁻¹	< 1e-05 s⁻¹	–
C10G G13U G41U U49G	< 1e-05 s⁻¹	–	–
C8A A36C C68U	< 1e-05 s⁻¹	–	–
G7U G13A G29U	< 1e-05 s⁻¹	< 1e-05 s⁻¹	< 1e-05 s⁻¹
A12G A33C C50A C68G	0.000144 ± 6.5e-05 s⁻¹	0.00016 ± 6.5e-05 s⁻¹	–
C8U U47G	< 1e-05 s⁻¹	–	< 1e-05 s⁻¹
C11G C16U G37A U45C A64G	< 1e-05 s⁻¹	–	–
G13A C68G C71G	0.000118 ± 5e-05 s⁻¹	0.000141 ± 3.4e-05 s⁻¹	–
G13U G51C G62C	< 1e-05 s⁻¹	–	–
G7A C11G A15C C50A U54C	< 1e-05 s⁻¹	< 1e-05 s⁻¹	–
G9U C10U C34G A53U G63C U65A	< 1e-05 s⁻¹	–	–
G7C U56G C67U	< 1e-05 s⁻¹	–	–
A6U U55G A64C	< 1e-05 s⁻¹	–	–
C11U U54G C58A C67G	0.000225 ± 7.2e-05 s⁻¹	5.14e-05 ± 2e-05 s⁻¹	–
A14C G32A G40U G59C	< 1e-05 s⁻¹	–	–
A6G U30A A39U G60U	< 1e-05 s⁻¹	< 1e-05 s⁻¹	–
A6G U49A	< 1e-05 s⁻¹	–	< 1e-05 s⁻¹
C8G A14U U49G A53U C61U	< 1e-05 s⁻¹	–	–
C8U G13A U46A G51C G59A	< 1e-05 s⁻¹	–	–
